Laboratory results from patent publication US10022453B2 (BAYER PHARMA AKTIENGESELLSCHAFT, priority 2013, dated 2018).
Positions count from the first letter of the chain named. One block for each molecule: values may come before it.

Key:
Caco-2 cells = test: Cell permeability, flux assay using Caco-2 cells
[1] = biological target: T1, recombinant human TWEAKR protein (TPP-2305) (Homo sapiens, UniProt Q9NP84); conditions: published data (WO2009/020933, WO2009/140177, literature); cited from earlier work
T1 construct: purchased Fitzgerald Inc 30R-AT080

[2] = biological target: T1, recombinant human TWEAKR protein (TPP-2305); test: Binding affinities by Biacore analysis; conditions: monovalent
Description: Determination of Binding Affinities by Biacore Analysis:
Binding affinities of anti-TWEAKR antibodies were examined using surface plasmon resonance analysis on a Biacore T100 instrument (GE Healthcare Biacore, Inc.). The antibodies were immobilized on a CM5 sensor chip using an indirect capture reagent, anti-human IgG(Fc). […] Anti-TWEAKR antibodies were injected at a concentration of 10 μg/ml at […] for 10 sec.
Sensorgrams were generated after in-line reference cell correction, followed by subtraction of the buffer sample. The dissociation constant (KD) was calculated based on the ratio of association (kon) and dissociation (koff) constants, obtained by fitting sensorgrams using a 1:1 first order binding model.

TWEAKR-Fc mutein S40R = biological target: T2, TWEAKR-Fc mutein S40R (Homo sapiens, UniProt Q9NP84, S40R); test: ELISA, effect of TWEAKR-Fc muteins on antibody binding; conditions: 62 ng/ml mutein coated, biotinylated IgG from 100 nM
T2 construct: the full-length ectodomain (amino acids 28-80); made in house
Description: (§1) Effect of TWEAKR-Fc Muteins on the Antibody Affinity
(§2) To this end, the full-length ectodomain (amino acids 28-80) having the individual amino acid substitutions below were expressed and purified as Fc fusion proteins: T33Q; S40R; W42A; M50A; R56P; H60K; L65Q.
(§3) Detection was carried out using streptavidin-HRP and Amplex Red.
(§4) The dose-reaction data were fitted and the IC50s were determined.

TWEAKR-Fc mutein L65Q = biological target: T3, TWEAKR-Fc mutein L65Q (Homo sapiens, UniProt Q9NP84, L65Q); test: as above; conditions: 62 ng/ml mutein coated, biotinylated IgG from 100 nM
T3 construct: the full-length ectodomain (amino acids 28-80); made in house
Description: as §1, §2, §3, §4

TWEAKR-Fc mutein M50A = biological target: T4, TWEAKR-Fc mutein M50A (Homo sapiens, UniProt Q9NP84, M50A); test: as above; conditions: 62 ng/ml mutein coated, biotinylated IgG from 100 nM
T4 construct: the full-length ectodomain (amino acids 28-80); made in house
Description: as §1, §2, §3, §4

TWEAKR-Fc mutein W42A = biological target: T5, TWEAKR-Fc mutein W42A (Homo sapiens, UniProt Q9NP84, W42A); test: as above; conditions: 62 ng/ml mutein coated, biotinylated IgG from 100 nM
T5 construct: the full-length ectodomain (amino acids 28-80); made in house
Description: as §1, §2, §3, §4

TWEAKR-Fc mutein H60K = biological target: T6, TWEAKR-Fc mutein H60K (Homo sapiens, UniProt Q9NP84, H60K); test: as above; conditions: 62 ng/ml mutein coated, biotinylated IgG from 100 nM
T6 construct: the full-length ectodomain (amino acids 28-80); made in house
Description: as §1, §2, §3, §4

TWEAKR-Fc mutein T33Q = biological target: T7, TWEAKR-Fc mutein T33Q (Homo sapiens, UniProt Q9NP84, T33Q); test: as above; conditions: 62 ng/ml mutein coated, biotinylated IgG from 100 nM
T7 construct: the full-length ectodomain (amino acids 28-80); made in house
Description: as §1, §2, §3, §4

TWEAKR-Fc mutein R56P = biological target: T8, TWEAKR-Fc mutein R56P (Homo sapiens, UniProt Q9NP84, R56P); test: as above; conditions: 62 ng/ml mutein coated, biotinylated IgG from 100 nM
T8 construct: the full-length ectodomain (amino acids 28-80); made in house
Description: as §1, §2, §3, §4

TWEAKR-Fc WT (TPP-599) = biological target: T9, TWEAKR-Fc WT (TPP-599) (Homo sapiens, UniProt Q9NP84); test: as above; conditions: 62 ng/ml TWEAKR-Fc coated, biotinylated IgG from 100 nM
T9 construct: hTNFRSF12 amino acids a28-80-hIgG1-Fc
Description: as §1, §2, §3, §4

Molecule: CC(C)(C)[C@H](c1nn(-c2cc(F)ccc2F)cc1Cc1ccccc1)N(CC[C@H](N)C(=O)NCCC(=O)NCCN1C(=O)CC(SC[C@H](N)C(=O)O)C1=O)C(=O)CO.O=C(O)C(F)(F)F (stereo partly shown) [Example 92]
Papp (B-A) (Caco-2 cells; Caco-2, 2 hours): 0.4 ×10⁻⁶ cm/s
Efflux ratio (Caco-2 cells; Papp (B-A) to Papp (A-B), Caco-2): 3

ka [2]: 1.64e+07 M⁻¹ s⁻¹
kd [2]: 0.0285 s⁻¹
IC50 (TWEAKR-Fc mutein S40R): 0.001 to 0.15 nM
IC50 (TWEAKR-Fc mutein L65Q): 0.001 to 0.15 nM
IC50 (TWEAKR-Fc mutein M50A): 0.001 to 0.15 nM
IC50 (TWEAKR-Fc mutein W42A): > 50 nM
IC50 (TWEAKR-Fc mutein H60K): 0.001 to 0.15 nM
IC50 (TWEAKR-Fc mutein T33Q): 0.001 to 0.15 nM
IC50 (TWEAKR-Fc mutein R56P): > 50 nM
IC50 (TWEAKR-Fc WT (TPP-599)): 0.001 to 0.15 nM
B1: 18.3.3(TPP-2193): comparative anti-TWEAKR antibody; variable domains from WO2009/020933, constant region added, "resulting in full-length IgGs" (protein)
light: DIVLTQSPASLAVSLGQRATISCKASQSVSTSTYSYMQWYQQRPGQSPKLLIKYASKLDSGVPARFSGSGSGTDFTLNIHPVEEEDTATYYCQHSWELPYTFGGGTRLEIKRADAAPTVSIFPPSSEQLTSGGASVVCFLNNFYPKDINVKWKIDGSERQNGVLNSWTDQDSKDSTYSMSSTLTLTKDEYERHNSYTCEATHKTSTSPIVKSFNRNEC
heavy: EVKLGESGGGLVQPGGSMKLSCVASGFPFTKYWMNWVRQSPEKGLEWVAEIRLKSDNYATHYAESAKGRFTISRDDSRSSVYLQMNNLRAEDTAIYYCSPTYADTMDYWGQGTSVTVSSAKTTAPSVYPLAPVCGDTTGSSVTLGCLVKGYFPEPVTLTWNSGSLSSGVHTFPAVLQSDLYTLSSSVTVTSSTWPSQSITCNVAHPASSTKVDKKIEPRGPTIKPCPPCKCPAPNLLGGPSVFIFPPKIKDVLMISLSPIVTCVVVDVSEDDPDVQISWFVNNVEVHTAQTQTHREDYNSTLRVVSALPIQHQDWMSGKEFKCKVNNKDLPAPIERTISKPKGSVRAPQVYVLPPPEEEMTKKQVTLTCMVTDFMPEDIYVEWTNNGKTELNYKNTEPVLDSDGSYFMYSKLRVEKKNWVERNSYSCSVVHEGLHNHHTTKSFSRTPG
modifications: Mus Musculus
Kd [1]: 0.2 nM

B2: 136.1: "agonistic antibodies already described [e.g. PDL-192(TPP-1104), P4A8(TPP-1324), 136.1(TPP-2194)]" (protein)
light: B1 light with A12T, K24R, T33S, S47P, S56T, K57N, T87A, L98I, R107K
heavy: EVKLEESGGGLVQPGGSMKLSCVASGFTFNNYWMSWVRQSPEKGLEWLAEIRLKSDNYATHYAESVKGKFTISRDDSKSRLYLQMNNLRAENTGIYYCTGGFADYFDYWGQGTTLTVSSAKTTAPSVYPLAPVCGDTTGSSVTLGCLVKGYFPEPVTLTWNSGSLSSGVHTFPAVLQSDLYTLSSSVTVTSSTWPSQSITCNVAHPASSTKVDKKIEPRGPTIKPCPPCKCPAPNLLGGPSVFIFPPKIKDVLMISLSPIVTCVVVDVSEDDPDVQISWFVNNVEVHTAQTQTHREDYNSTLRVVSALPIQHQDWMSGKEFKCKVNNKDLPAPIERTISKPKGSVRAPQVYVLPPPEEEMTKKQVTLTCMVTDFMPEDIYVEWTNNGKTELNYKNTEPVLDSDGSYFMYSKLRVEKKNWVERNSYSCSVVHEGLHNHHTTKSFSRTPG
modifications: Mus Musculus
Kd [1]: 0.7 nM

ka [2]: 3.84e+07 M⁻¹ s⁻¹
kd [2]: 0.0324 s⁻¹
IC50 (TWEAKR-Fc mutein S40R): 0.001 to 0.15 nM
IC50 (TWEAKR-Fc mutein L65Q): 0.001 to 0.15 nM
IC50 (TWEAKR-Fc mutein M50A): 0.001 to 0.15 nM
IC50 (TWEAKR-Fc mutein W42A): > 50 nM
IC50 (TWEAKR-Fc mutein H60K): 0.001 to 0.15 nM
IC50 (TWEAKR-Fc mutein T33Q): 0.001 to 0.15 nM
IC50 (TWEAKR-Fc mutein R56P): > 50 nM
IC50 (TWEAKR-Fc WT (TPP-599)): 0.001 to 0.15 nM
B3: 136.1(TPP-2194): comparative anti-TWEAKR antibody; variable domains from WO2009/020933, constant region added, "resulting in full-length IgGs" (protein)
light: B1 light with A12T, K24R, T33S, S47P, S56T, K57N, T87A, L98I, R107K
heavy: B2 heavy
modifications: Mus Musculus

ka [2]: 2.31e+06 M⁻¹ s⁻¹
kd [2]: 0.00122 s⁻¹
IC50 (TWEAKR-Fc mutein S40R): 0.001 to 0.15 nM
IC50 (TWEAKR-Fc mutein L65Q): 0.001 to 0.15 nM
IC50 (TWEAKR-Fc mutein M50A): 0.001 to 0.15 nM
IC50 (TWEAKR-Fc mutein W42A): > 50 nM
IC50 (TWEAKR-Fc mutein H60K): 0.001 to 0.15 nM
IC50 (TWEAKR-Fc mutein T33Q): 0.001 to 0.15 nM
IC50 (TWEAKR-Fc mutein R56P): 0.001 to 0.15 nM
IC50 (TWEAKR-Fc WT (TPP-599)): 0.001 to 0.15 nM
B4: P3G5(TPP-2195): comparative anti-TWEAKR antibody; variable domains from WO2009/140177, constant region added, "resulting in full-length IgGs" (protein)
light: DIVLTQSPASLAVSLGQRATISCRANKSVSTSSYSYMHWYQQKPGQPPKLLIKYASNLESGVPARFSGSGSGTDFILNIHPVEEEDAATYYCQHSRELPFTFGSGTKLEIKRADAAPTVSIFPPSSEQLTSGGASVVCFLNNFYPKDINVKWKIDGSERQNGVLNSWTDQDSKDSTYSMSSTLTLTKDEYERHNSYTCEATHKTSTSPIVKSFNRNEC
heavy: QVQLQQSGPEVVRPGVSVKISCKGSGYTFTDYGIHWVKQSHAKSLEWIGVISTYNGYTNYNQKFKGKATMTVDKSSSTAYMELARLTSEDSAIYYCARAYYGNLYYAMDYWGQGTSVTVSSAKTTAPSVYPLAPVCGDTTGSSVTLGCLVKGYFPEPVTLTWNSGSLSSGVHTFPAVLQSDLYTLSSSVTVTSSTWPSQSITCNVAHPASSTKVDKKIEPRGPTIKPCPPCKCPAPNLLGGPSVFIFPPKIKDVLMISLSPIVTCVVVDVSEDDPDVQISWFVNNVEVHTAQTQTHREDYNSTLRVVSALPIQHQDWMSGKEFKCKVNNKDLPAPIERTISKPKGSVRAPQVYVLPPPEEEMTKKQVTLTCMVTDFMPEDIYVEWTNNGKTELNYKNTEPVLDSDGSYFMYSKLRVEKKNWVERNSYSCSVVHEGLHNHHTTKSFSRTPG
modifications: Mus Musculus
